These results are taken from the DeepSol protein solubility set.

The series can be described thus: soluble on expression in E. coli; label from the status in PepcDB or PDB records.
Consider “QDLTLSFNHIKSAVIYSAYPLTDKQVGELVQMLNKRFDSELKISVEIEPELIGGIKVEVGDQVLDLSVQGKLSALYTTMTN”, for which the “soluble on expression in E. coli” value was “not soluble”.
Regarding “QEQAVILRFGKYYETVGPGLNFYFPPIDKRFQENVTRERAYSKQGQMLTEDENIVEVPLTVQYKISNLQDFVLNVDQPEVSLQQATESALRHVAGSTTMDRILTEGREQMATEVRERLQRFLDTYRTGITVTQVNIQSAQAPREVQEAFDDVIRAREDEQREKNQAEAYANGVVPEARGQAQRIIEEANGYRDEVISRAQGEADRFSKLLVEYRKAPEVTRERLYLDTMQEVFSQTSKVLVTGQQGQNNLLYLPLDKMIDGRNAAPATGAGASAGGGSASASDLGSRIVNDLRQQDARTRESR”, the “soluble on expression in E. coli” value is reported as “not soluble”.
In the case of “QFKVKSAFKKYSQVATQNGVTGAQAALRILQRGGLENVNVEMTSGMLSDHYDPRQKVLRLSEEVYSLPSIASVGVAAHEAGHALQDKVNYSPLAIRSAM”, the “soluble on expression in E. coli” value is given as “not soluble”.
In the case of “QGGPVEILPYLFLGSCSHSSDLQGLQACGITAVLNVSASCPNHFEGLFRYKSIPVEDNQMVEISAWFQEAIGFIDWVKNSGGRVLVHSQAGISRSATICLAYLMQSRRVRLDEAFDFVKQRRGVISPNFSFMGQLLQFETQVLCH”, the “soluble on expression in E. coli” value was “soluble”.
Regarding “QKIEKQYDADLEQILIQWITTQCRKDVGRPQPGRENFQNWLKDGTVLCELINALYPEGQAPVKKIQASTMAFKQMEQISQFLQAAERYGINTTDIFQTVDLWEGKNMACVQRTLMNLGGLAVARDDGLFSGDPNWFPKKSKE”, the “soluble on expression in E. coli” value is on record as “soluble”.
As for “QKTGIYDSLRLKLEIVKFYSPNERDAAFHSGNVEGTVIDYTGAAMQQAGGIDLQLVMRLDGYFRLVMSKDYTGESLETLKGKNLGISRNTVIEYTTDRIINTAGLDESEITKTEVNKIPLRLEMLRSGQIDAAVLPDPFITIAMADG”, the “soluble on expression in E. coli” value is on record as “not soluble”.
In the case of “QLAAIDAFDRLTALMTSHFDIDVAFVGLMDEHEERFVACEGANWRTLAREDTICTHTILSDETMVVEDTHEDPRFAEVDALKRLNIRSYAGGRITDREGNAIGAVCCTDGEPRRYTQTERDDLQRFADEVEEQLLLRRRLQGDR”, the “soluble on expression in E. coli” value was “not soluble”.
Take “QLQEKLYVPVKEYPDFNFVGRILGPRGLTAKQLEAETGCKIMVRGKGSMRDKKKEEQNRGKPNWEHLNEDLHVLITVEDAQNRAELKLKRAVEEVKKLLVPAAEGEDSLKKMKLMELAILNGTYRDANLKSPALHHHHHH”: the “soluble on expression in E. coli” value is reported as “soluble”.
On to “QNLPQGDLMQHGMMAVKAATLSDAEVRQVADQACAESDQQNRIAPANSKYGQRLDKIAKALGDQIDGVPVNYKVYLTEEVNAWAMANGCIRVYSGLMELMSDNEIEGVLGHEMGHVALGHTRKAAQTAYAAAAVRGAAGASKSGALAALSGSQLGELTESLVNAQFSQSQESDADDFSYELLKKRGVNTQGLVTAFEKLAKLGGGDSSMFDSHPGSQARADHIRQRIAADR”, for which the “soluble on expression in E. coli” value is on record as “not soluble”.
Turning to “QQCGQTAPLINERLSYMKDVAGYKAENHLPIEDRIQEEKVINSAMAQAESLGLNGESIKPLMVAQINAAKAIQYRYRADWLSQPEPGWQPKPLDDVRANIGELSTKILEQIAEELKTCKPAEMGDKAHFINTIRQHNLTSADVEAIFSTFNQVKLK”, the “soluble on expression in E. coli” value was “soluble”.
“QRKKAEEALRLSNIYNRSLIESSLDPLVTIGRDGKITDVNCATEQVTGYPRNDLIKTDFSDYFTEPENARAGYKQVFTDGEVRDYPLEIQHKDGHITPVLYNASVYRDENGEVIGVFAAARDIT”: the “soluble on expression in E. coli” value is reported as “not soluble”.
On to “QRQSPIYHAQATVLIKSAEKSGATSGLQQFQELGLMIGNSEVENEILMLKSKRLTAIVVDKLDLDVSIYKQGFWRNESLYGNSPVSIQITDRDSTENYSFRIQINDAHSFQLTHFEQKERNGIGDIKIDGSFGRPIATPVGELKLNTTLFFADSWKGEVLYVTKENTRKVVERYNQDLQVSLADKKATIVNLSLKNEDLDRAKNFIDALIASYNDDVMNDKKSVAVSTAAFIDERLAMIGGELGTVDTEIETFKKRNNITDISTDVGTYLKSSADLQKDQLIVERNLSLAKYIQSFLRQTSTDNELMPANLGLTERGIDNSITLYNELKLKYDRLKQSSSENSPAVQEVGMQLVAMRKSINAAVDNYIKTLNLQLREVNKEMSRTKEQISAVPTQEKIMSTILRQQKIKEELYLYLLNKREENALRLAITESNAKTVDSADGSSEPISPRKP”, for which the “soluble on expression in E. coli” value is “not soluble”.
Regarding “QSALTQPASVSGSPGQSITISCTGTSSDVGGYNYVSWYQQHPGKAPKLMIYGVTNRPSGVSNRFSGSKSGNTASLTISGLQAGDEADYYCSSYTSTRTPYVFGTGTKVEIKRTVAAPSVFIFPPSDEQLKSGTASVVCLLNNFYPREAKVQWKVDNALQSGNSQESVTEQDSKDSTYSLSSTLTLSKADYEKHKVYACEVTHQGLSSPVTKSFNRGEC”, the “soluble on expression in E. coli” value was “soluble”.
“QSGHTKKINDKEMLDYKGRIPVGTLTLKFDQPVKDPILDFSGLGGYNIFSAHHEEASHEGIRNWEVRNGKIVVTGESASVVGAQINDQIRGSFNHTDLELETPGVKLVELAKNSNLKVDDRSISTVAANNDYVCNTPNDYQTLPEELENGPSYEQNDAFLSPVMKPAGCGSVLAQGEFSELKFTLFSSVEPMSSFAHDTHKTGLLYFAGGVNGGNANPVTPIPMLEGYSKPQEVSDTSNGDLFRMSIRLPEEPVKGSVSVGDFVWIDKDADGRQDDNEPGLAGVKLWLYGPDGGPVTDVHGKVVKSVTTGEDGKYSFKDLPVLTGSDSYTVKVVDVPAGYKPTLSGTGKVPAFKDSSTDLAKSTPGALSENGAQDLTLDFGFVKESATPSDPTVPGFK”: the “soluble on expression in E. coli” value was “not soluble”.
For “QTLDIQRGATLFNRACIACHDTGGNIIQPGATLFTKDLERNGVDTEEEIYRQTYFGKGRMPGFGEKCTPRGQCTFGPRLQDEEIKLLAEFVKFQADQGWPTVSTD”, the “soluble on expression in E. coli” value is on record as “soluble”.
Consider “QVQLLESGAVLARPGTSVKISCKASGFNIKDYYMHWVKQRPGQGLEWIGGNDPANGHSMYDPKFQGRVTITADTSTSTVFMELSSLRSEDTAVYYCARDSGYAMDYWGQGTLVTVSSASTKGPSVFPLAPCSRSTSESTAALGCLVKDYFPEPVTVSWNSGALTSGVHTFPAVLQSSGLYSLSSVVTVPSSSLGTKTYTCNVDHKPSNTKVDKRVES”, for which the “soluble on expression in E. coli” value is “soluble”.
On to “QVQLQQPGTELVRPGASVILSCKASGYTFTSYWINWVKQRPGQGLEWVGNIFPSDSYTNYNQKFKDKATLTVDKSSSTAYMQVNSPTSEDSAVYYCTRGARDTWFAYWGQGTLVTVSVAKTTPPSVFPLAPGSAAQTNSMVTLGCLVKGYFPEPVTVTWNSGSLSSGVHTFPAVLQSDLYTLSSSVTVPSSTWPSETVTCNVAHPASSTKVDKKIVPRDC”, for which the “soluble on expression in E. coli” value is recorded as “soluble”.
The entry for “RARADKQHVLDMLFSAFEKHQYYNLKDLVDITKQPVVYLKEILKEIGVQNVKGIHKNTWELKPEYRHYQ” is “soluble”; for “REEDPHEGKIWFHGKISKQEAYNLLMTVGQVCSFLVRPSDNTPGDYSLYFRTNENIQRFKICPTPNNQFMMGGRYYNSIGDIIDHYRKEQIVEGYYLKEPVPMQDQ” it is “soluble”; for “REGKASTVNPGNGNVPDAEDLQALFDVIYEVMPEPTVNVDGPLQAHVTNLDSSSFLGRIGLIRVHSGSLKKGQQVAWIHYDEEGNQHTKTAKIAELLRTVGVTRVPADEVVAGDIAAISGIDSIMIGDTLADLEHPVALPRITVDEPAISMTIGVNTSPLAGRGGGDKLTARVVKARLEQELIGNVSLRVLPTERPDAWEVQGRGEMALSVLVETMRREGFELTVGKPQVVTQTVDGKLFEPYEHMVIDIPSEYQGNVTQLMAARKGQMLSMDNISDEWVRMEYKVPARGLISFRTMFMTETRGTGIANSYSEGLDEWAGEIKGRATGSLVADRSGQITAYALQQLADRGNFFVEPGTEAYEGMVVGANNRDEDMDVNITREKKLTNMRSATADATVTLAKARSLSLDEAMEFCGQDECVEVTPDVLRVRKVILNATERGRARAREKARNK” it is “not soluble”.
For the sequence “RFNVFDFRGATLIADYGHNPDAIQALVRAIDTMPARRRSVVISGAGDRRDEDLRQQTEILGGAFDDVILYQDQCQRGRADGEVVALLRQGLQQAPRTRHIDEIQGEFVAIDAALERLAPGDLCLILVDQ”, the “soluble on expression in E. coli” value is on record as “not soluble”.
For the sequence “RFSEVLSTPEYDNAKSPVTLALGHDIGGKPVITDLAKMPHLLVAGTTGSGKSVGVNAMILSILFKSGPEDAKLIMIDPKMLELSIYEGIPHLLCPVVTDMKDAANALRWSVAEMERRYKLMAKMGVRNLSGFNQKVKEAQDAGEPLADPLYKRESIHDEAPLLTKLPTIVVVVDEFADMMMIVGKKVEELIARIAQKARAAGIHLILATQRPSV”, the “soluble on expression in E. coli” value is listed as “not soluble”.
Regarding “RKADEGKWQLVGGDIQNAIVQNICMMDDNKIACEVFGTPNGVDGRTRVCVSDASVFDFEWYEDEIYGGLIFDTFFYSPWDKLLYAKFGGIMLRSKESFITSFISPTVVQGVDVYTLAGKIRIESETPVSEVLLFDLAGRMVLRQTIDNKIYSDIDTNGLKRSGIYVVSVRLSSGQVFSHKVQV”, the “soluble on expression in E. coli” value is given as “not soluble”.
The entry for “RKMFRALMPALEELTFDPSSAHPSLVVSSSGRRVECSEQKAPPAGEDPRQFDKAVAVVAHQQLSEGEHYWEVDVGDKPRWALGVIAAEAPRRGRLHAVPSQGLWLLGLREGKILEAHVEAKEPRALRSPERRPTRIGLYLSFGDGVLSFYDASDADALVPLFAFHERLPRPVYPFFDVCWHDKGKNAQPLLLV” is “soluble”; for “RLSTWARKQTAMSQTQDYECRSHNVDLPESRIPGSNTRLEWVEIIEPRTRERMYANLVTGECVWDPPAGVRIKRTSENQWWELFDPNTSRFYYYNASTQRTVWHRPQGCDIIPLAKLQTLKQNTESPRASAESSPGRGSSVSREGSTSSSLEPEPDTEKAQELPARAGRPAAFGTVKEDSGSSSPPGVFLEKDYEIYRDYSADGQLLHYRTSSLRWNSGAKERMLIKVADREPSFLAAQGNGYAPDGPPGVRSRRPSGSQHSPSLQTFAPEADGTIFFPERRPSPFLKRAELPGSSSPLLAQPRKPSGDSQPSSPRYGYEPPLYEEPPVEYQAPIYDEPPMDVQFEAGGGYQAGSPQRSPGRKPRPFLQPNKQGPPSPCQQLVLTKQKCPERFLSLEYSPAGKEYVRQLVYVEQAGSSPKLRAGPRHKYAPNPGGGSYSLQPSPCLLRDQRLGVKSGDYSTMEGPELRHSQPPTPLPQAQEDAMSWSSQQDTLSSTGYSPGTRKRKSRKPSLCQATSATPTEGPGDLLVEQPLAEEQPPCGTSLAPVKRAEGEAEGARGAAEPFLAQARLAWEAQQAHFHMKQRSSWDSQQDGSGYESDGALPLPMPGPVVRAFSEDEALAQQENRHWRRGTFEKLGFPQILLEKSVSVQTNLASPEPYLHPSQSEDLAACAQFESSRQSRSGVPSSSCVFPTFTLRKPSSETDIENWASKHFNKHTQGLFRRKVSIANMLAWSSESIKKPMIVTSDRHVKKEACELFKLIQMYMGDRRAKADPLHVALEVATKGWSVQGLRDELYIQLCRQTTENFRLESLARGWELMAICLAFFPPTPKFHSYLEGYIYRHMDPVNDTKGVAISTYAKYCYHKLQKAALTGAKKGLKKPNVEEIRHAKNAVFSPSMFGSALQEVMGMQRERYPERQLPWVQTRLSEEVLALNGDQTEGIFRVPGDIDEVNALKLQVDQWKVPTGLEDPHVPASLLKLWYRELEEPLIPHEFYEQCIAHYDSPEAAVAVVHALPRINRMVLCYLIRFLQVFVQPANVAVTKMDVSNLAMVMAPNCLRCQSDDPRVIFENTRKEMSFLRVLIQHLDTSFMEGVL” it is “soluble”.
